This is an account of results in publication PMC3679926.

Series [1] deals with T1, p53 (rp53) (UniProt P04637 1-393). The experiment in a line: EMSA. On the technique in general: Mobility shift assays separate free from complexed probe on a gel.
In series [2] the target is T1, p53 (rp53). Put plainly: competition.

T1 sequence (P04637 whole entry): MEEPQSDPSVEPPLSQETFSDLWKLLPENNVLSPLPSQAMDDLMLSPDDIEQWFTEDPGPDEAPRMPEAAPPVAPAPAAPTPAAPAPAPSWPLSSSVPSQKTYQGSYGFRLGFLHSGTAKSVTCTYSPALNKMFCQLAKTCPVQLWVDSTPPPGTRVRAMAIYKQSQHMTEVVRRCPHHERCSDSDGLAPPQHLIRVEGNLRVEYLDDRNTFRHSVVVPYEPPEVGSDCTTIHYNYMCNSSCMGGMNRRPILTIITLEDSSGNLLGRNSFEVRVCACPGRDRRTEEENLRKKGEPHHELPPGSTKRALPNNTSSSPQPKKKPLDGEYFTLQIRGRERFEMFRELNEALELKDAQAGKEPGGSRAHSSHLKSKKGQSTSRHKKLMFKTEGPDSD

B1: p53RE wt (miR-205 upstream p53BS) (dsDNA)
DNA 1: ACTGAGCCATGGGCATGTCTGAACACAACA
DNA 2: TGTTGTGTTCAGACATGCCCATGGCTCAGT
In the case of B1, the binding result with p53 (rp53) [1] is on record as “binds”.

B2: p53RE wt, unlabeled competitor (dsDNA)
DNA 1: ACTGAGCCATGGGCATGTCTGAACACAACA
DNA 2: TGTTGTGTTCAGACATGCCCATGGCTCAGT
In the case of B2, the binding result in the series with p53 (rp53) [2] is reported as “binds”.

B3: p53RE MUT (dsDNA)
DNA 1: ACTGAGCCATCCCGGCCGGCGAACACAACA
DNA 2: TGTTGTGTTCGCCGGCCGGGATGGCTCAGT
With B3, the binding result in the series with p53 (rp53) [1] was “no binding”.
